Measured values published in article doi:10.1101/2025.06.05.657996.

Columns and labels:
[1] = target: MHV68 gL-gH fusion protein (gL-Linker-gH-Linker-His6) (murine gammaherpesvirus 68 (MHV68))
[2] = target: MHV68 gL-gH fusion protein (gL-Linker-gH-Linker-His6) (murine gammaherpesvirus 68 (MHV68)); assay: ELISA; MHV68 gL-gH fusion protein coated at 2.5 μg/ml in PBS on Maxisorp plates; dimeric soluble murine Eph-Fc proteins 2 h at room temperature in 1% BSA in PBS; detected with ProteinG-HRP; four-parameter dose-response fit

For “recombinant soluble murine EphA4-Fc (from UniProt Q03137 20-547) (Fc fusion)”, the reduction of MHV68 ORF59-GFP infection of the murine endothelial cell line SVEC4-10 after pre-incubation of virions with 100 nM homodimerized mEphA4-Fc [1] was 25% and the EC50 [2] was 3.6 nM.

B1: recombinant soluble murine EphB3-Fc (Fc fusion)
chain: LEETLMDTKWVTSELAWTSHPESGWEEVSGYDEAMNPIRTYQVCNVRESSQNNWLRTGFIWRREVQRVYVELKFTVRDCNSIPNIPGSCKETFNLFYYEADSDVASASSPFWMENPYVKVDTIAPDESFSRLDAGRVNTKVRSFGPLSKAGFYLAFQDQGACMSLISVRAFYKKCASTTAGFALFPETLTGAEPTSLVIAPGTCIANAVEVSVPLKLYCNGDGEWMVPVGACTCATGHEPAAKESQCRACPPGSYKAKQGEGPCLPCPPNSRTTSPAASICTCHNNFYRADSDSADSACTTVPSPPRGVISNVNETSLILEWSEPRDLGGRDDLLYNVICKKCRGSSGAGGPATCSRCDDNVEFVPRQLGLTERRVHISHLLAHTRYTFEVQAVNGVSGKSPLPPRYAAVNITTNQAAPSEVPTLHLHSSSGSSLTLSWAPPERPNGVILDYEMKYFEKSKGIASTVTSQKNSVQLDGLQPDARYVVQVRARTVAGYGQYSHPAEFETTSERGSGAQQLQEQLPL
Molecule B1 has an inhibition of MHV68 ORF59-GFP infection of human fibroblasts (HFF) and endothelial cells (TIME) after pre-incubation of virions with 100 nM homodimerized mEphB3-Fc [1] of 30%, a reduction of MHV68 ORF59-GFP infection of NIH 3T3 murine fibroblasts after pre-incubation of virions with a concentration series of soluble mEphB3-Fc, up to 100 nM homodimerized protein [1] of 40% and an EC50 [2] of 2.3 nM.
